Source: the DeepSol protein solubility set

Test: soluble on expression in E. coli; label from the status in PepcDB or PDB records

EAISLSFEQRGQRRAILRDLSLGLAKGESLVVLGPSGCGKSTLLNILAGFQKPDQGRVQIDGRTLEGPGGERGVVFQDDALMPWLNALDNVALGLRIRGLGKAERTARARQVLQLVGLQEYAEQSVAQLSGGQRQRLGLARALAVEPDFLLLDEPFGALDALTRERMQVLLLDLWKQTGKGLFLITHSVDEALFLATDLVVMDGPPARIVKRLPVDFARRYAAGETVRSIKADPEFGRLRQALLDEFLDVAEA
soluble on expression in E. coli: not soluble

MNLEGLEMIAVLIVIVLFVKLLEQFGLIEAGLEDSVEDELEMATVRHRPEALELLEAQSKFTKKELQILYRGFKNECPSGVVNEETFKEIYSQFFPQGDSTTYAHFLFNAFDTDHNGAVSFEDFIKGLSILLRGTVQEKLNWAFNLYDINKDGYITKEEMLDIMKAIYDMMGKCTYPVLKEDAPRQHVETFFQKMDKNKDGVVTIDEFIESCQKDENIMRSMQLFENVI
soluble on expression in E. coli: soluble

MAESLITKKAIAGGLMELCQHKRFEKISIADITNICGLNRQTFYYHFTDKYDLLTWTYENDFFHCLADGITLENWDKHVLKMLESIKENADFYKNTVSADASILSFCFSKLTNSLFMDLFEKIDTNGAVNEADRVFYAEFFSYGCSGVLIKWITRGFKEAPETIANQLFRLAKDTEFLANSMYRENLEHHHHHH
soluble on expression in E. coli: soluble

MGSDKIHHHHHHMKIAITGKGGVGKTFIASTLMRLFEKNGFKVIGVDCDPNPTLALAFGVEEEIVPLSKRHDIIEERTGAKPGTYGNIFKINPKVDDLIDKVGYKIGNITLLVMGTIEEGGEGCVCPASVLLRRLLRHLILKRDEVVILDMEAGIEHFGRKTIDTVDLMLIVIEPTKKSLITAKRMKKLANDLGIKNLGVIVNKVRNEDKELLKDIIKEELGLEVLGFVPYDEEVIKSEFLGKPINLDSKAAKEIEKIFNYIIKLKNTT
soluble on expression in E. coli: not soluble

MGSDKIHHHHHHMKPLRKIRLGIVGCGIAARELHLPALKNLSHLFEITAVTSRTRSHAEEFAKMVGNPAVFDSYEELLESGLVDAVDLTLPVELNLPFIEKALRKGVHVICEKPISTDVETGKKVVELSEKSEKTVYIAENFRHVPAFWKAKELVESGAIGDPVFMNWQIWVGMDENNKYVHTDWRKKPKHVGGFLSDGGVHHAAAMRLILGEIEWISAVAKDLSPLLGGMDFLSSIFEFENGTVGNYTISYSLKGNERFEITGTKGKISISWDKIVLNEEEMKVPQENSYQKEFEDFYQVVAEGKPNDLGSPVQALKDLAFIEACVRSAGNKVFVSSLL
soluble on expression in E. coli: soluble

MSDKRRYFGTDGVRGKVGQYPITPDFVLKLGWAAGRVLAKQGTRKVIIGKDTRISGYMLESALEAGLAAAGLKATFTGPMPTPAVAYLTQTFRAEAGIVISASHNPYYDNGIKFFSYEGTKLPDDIELAIEAELDKDIECVESAELGKASRMVDAAGRYIEFCKSTFPSKLSLSGLKLVVDCANGATYHIAPNVFRELGAEVIAMGVEPNGLNINDQVGATDVRALQKRVVEEHAHLGLAFDGDGDRIIMVDHLGNKVDGDQIAYIIARDALRRGELKGGVVGTLMTNLGMENGLKQLGIPFVRAAVGDRYVMEKLLEKGWKIGAENSGHVILLDKVTTGDAIVAGLQVLASVVGSEMTLHELAKGMTLYPQVLENVRFAGDNNPLEADAVKAAVSEVEAELGSKGRVLLRKSGTEPLIRVMVEGEDETLVKQSALKIAQAVKDNC
soluble on expression in E. coli: not soluble

PMVTAATSLRRALENPDSFIVAPGVYDGLSARVALSAGFDALYMTGAGTAASVHGQADLGICTLNDMRANAEMISNISPSTPVIADADTGYGGPIMVARTTEQYSRSGVAAFHIEDQVQTKRCGHLAGKILVDTDTYVTRIRAAVQARQRIGSDIVVIARTDSLQTHGYEESVARLRAARDAGADVGFLEGITSREMARQVIQDLAGWPLLLNMVEHGATPSISAAEAKEMGFRIIIFPFAALGPAVAAMREAMEKLKRDGIPGLDKEMTPQMLFRVCGLDESMKVDAQAGGAAFDGGVDLK
soluble on expression in E. coli: soluble

MSKPYLAGLLLISPWALAASGSWSSESFGGTMTRGQQSVKSKPLQSPSPLPPGARATTVHWKIKTDGLTPSGLRIRLCNAARCVRLAGWAGEMPLPAGIAPEGPFRFEYHASEAGTLRSPVTILSNQLTVSYHSSH
soluble on expression in E. coli: not soluble
